The data set is described as follows: soluble on expression in E. coli; label from the status in PepcDB or PDB records.
For “MSFDIAKYPTLALVDSTQELRLLPKESLPKLCDELRRYLLDSVSRSSGHFASGLGTVELTVALHYVYNTPFDQLIWDVGHQAYPHKILTGRRDKIGTIRQKGGLHPFPWRGESEYDVLSVGHSSTSISAGIGIAVAAEKEGKNRRTVCVIGDGAITAGMAFEAMNHAGDIRPDMLVVLNDNEMSISENVGALNNHLAQLLSGKLYSSLREGGKKVFSGVPPIKELLKRTEEHIKGMVVPGTLFEELGFNYIGPVDGHDVLGLITTLKNMRDLKGPQFLHIMTKKGRGYEPAEKDPITFHAVPKFDPSSGCLPKSSGGLPSYSKIFGDWLCETAAKDNKLMAITPAMREGSGMVEFSRKFPDRYFDVAIAEQHAVTFAAGLAIGGYKPIVAIYSTFLQRAYDQVLHDVAIQKLPVLFAIDRAGIVGADGQTHQGAFDLSYLRCIPEMVIMTPSDENECRQMLYTGYHYNDGPSAVRYPRGNAVGVELTPLEKLPIGKGIVKRRGEKLAILNFGTLMPEAAKVAESLNATLVDMRFVKPLDETLILEMAASHEALVTVEENAIMGGAGSGVNEVLMAHRKPVPVLNIGLPDFFIPQGTQEEMRAELGLDAAGMEAKIKAWLA”, the “soluble on expression in E. coli” value is “not soluble”.

Regarding “MTHQTHTIAESNNFIVLDKYIKAEPTGDSYQSESDLERELIQDLRNQGYEFISVKSQSAMLANVREQLQNLNGVVFNDSEWRRFTEQYLDNPSDGILDKTRKIHIDYICDFIFDDERLENIYLIDKKNLMRNKVQIIQQFEQAGSHANRYDVTILVNGLPLVQIELKKRGVAIREAFNQIHRYSKESFNSENSLFKYLQLFVISNGTDTRYFANTTKRDKNSFDFTMNWAKSDNTLIKDLKDFTATCFQKHTLLNVLVNYSVFDSSQTLLVMRPYQIAATERILWKIKSSFTAKNWSKPESGGYIWHTTGSGKTLTSFKAARLATELDFIDKVFFVVDRKDLDYQTMKEYQRFSPDSVNGSENTAGLKRNLDKDDNKIIVTTIQKLNNLMKAESDLPVYNQQVVFIFDECHRSQFGEAQKNLKKKFKRYYQFGFTGTPIFPENALGSETTASVFGRELHSYVITDAIRDEKVLKFKVDYNDVRPQFKSLETETDEKKLSAAENQQAFLHPMRIQEITQYILNNFRQKTHRTFPGSKGFNAMLAVSSVDAAKAYYATFKRLQEEAANKSATYKPLRIATIFSFAANEEQNAIGEISDETFDTSAMDSSAKEFLDAAIREYNSHFKTNFSTDSNGFQNYYRDLAQRVKNQDIDLLIVVGMFLTGFDAPTLNTLFVDKNLRYHGLMQAFSRTNRIYDATKTFGNIVTFRDLERSTIDAITLFGDKNTKNVVLEKSYTEYMEGFTDAATGEAKRGFMTVVSELEQRFPDPTSIESEKEKKDFVKLFGEYLRAENILQNYDEFATLKALQQIDLSDPVAVEKFKAEHYVDDEKFAELQTIRLPADRKIQDYRSAYNDIRDWQRREKEAEKKEKSTTDWDDVVFEVDLLKSQEINLDYILGLIFEHNRQNKGKGEMIEEVKRLIRSSLGNRAKEGLVVDFIQQTNLDDLPDKASIIDAFFTFAQREQQREAEALIKEENLNEDAAKRYIRTSLKREYATENGTELNETLPKLSPLNPQYKTKKQAVFQKIVSFIEKFKGVGGKI”, the “soluble on expression in E. coli” value was “soluble”.

Regarding “MRREIRRICGFDVSDRWINLFRKKHGIRYFSGRRHADKKDKTIILSALDVTKMKTTNFLKKRRILRTSRKEYADVDLQVNKEIVRRQNKGERLTNPWIKEYAQYVAYQLHPEIPDIAKFFDANWLYRFKRRYCVELKVALNDFLYDLNSIFQPRSPEENTRSTPQTTSNEDIKSSATSMEVVTSPNYLFPHHYFNLFDQNGCGASIVKQEPTREN”, the “soluble on expression in E. coli” value was “not soluble”.

As to “MEGSHHHHHHSQAQSKAQVLQSVAGQTLTVRCQYPPTGSLYEKKGWCKEASALVCIRLVTSSKPRTMAWTSRFTIWDDPDAGFFTVTMTDLREEDSGHYWCRIYRPSDNSVSKSVRFYLVVS”, the “soluble on expression in E. coli” value was “soluble”.

Regarding “MNKFFSADKKGGEKRRKKSKKKVRIVGMSEIGIWRQDDTMRIVHLSVWCILKRTTASLSGNEWKLSTRHANDGYIVRSPPTISGPERLQENGYVIWILL”, the “soluble on expression in E. coli” value is “not soluble”.

Turning to “MISSSLPSSNAASSSEGRITQAKDVQGFSQRSASGQTPLNQSAALSEQAVPSFRLAAQTFSSEERKEATTATTEENAAVDTTGMNVLLSATTPTETPDLAAQAQTLTQGMLNMAEKSVASFNKVNPLEIKGEAKTTSPAQANALLNTSPQQQDIQTSQTTSANARVNTSAVDFQALLNQPAQGQATTAPLNVQTSAPSAQAVSAATVAHAHTQGSEWAAVKVDTSAGKWGEQMMQVLHDRVTLQAQQSVQEAKIRLDPPDLGKLDLLVRVEGDRLSVQINANTAATREALMQVSERLRTELQEQNFVHVDVNVGADQGQERHQQQMNDEDTTIFAARESSAFQSNTTTNYSEHWLNTQA”, the “soluble on expression in E. coli” value is reported as “not soluble”.

“MRTIKLIIAYDGTAYAGFQRQPNGITIQQRLEEALRAVTGEPDLRIGAAAGRTDAGVHARGQVVHLRTYATIPIDRWPAALNGHLPDDIAVIGAEEAPPDFHARYWAREKRYRYTFCLSPYRLPMARLYSYHWHRPVDVDAMRRAAALLVGRHDFAAFRATGGSARTTVRTITRLTLTEEPPFLHLDVTADGFLYNMVRIIAGTLLEVGAGRRSLDRVAQALRHGRREDAGRTLPPHGLCLEEVVYGDGPSIPPWAAEAAPDVDLEP”: the “soluble on expression in E. coli” value is recorded as “soluble”.

As for “MAHHHHHHMLQINAFKLVRATPFLLKRTGKPADTPDYKQVYLPYDAAPTERELERERRRFKQAHHGRMEHRKLVEVKEVPLNVYTYGKEGMSLPIAIFKDQKDPVIGPEWTYPGIYENKIAAQHWYTEELFDKESKEAFESPWQQQILDNQVKRRMAKVMFRMRQVNMKAVDLFQKERGSSRRSGGAGE”, the “soluble on expression in E. coli” value is “not soluble”.

On to “MFEIATAKVDNMRVSIVGGGFAGLAAAQLAEEVTSDVHLYDKGTYSGDRRGAWGEMVWDYSQLPLDRHVPGYVREATTGIFIGSDGKTAINVPDGVILNRGELEKHWASTLEETEIIADAEVDEAEFRKLSAESDLLIDATGQFPISRRFTSLSYDVACPTLSGRIEADFSHLYPEPRALAYENYFLWIVPQSPDEATIGLGCQEDKSPAELYEDMRQLLAEVDIEPPERETLYSGTDVSNGLRSLSDCSYELNDCTVHIAGDAIGLANRLTGFGMVHAAQSGQAAVRSFVQGESYTRRLLCQNFWTKAVTGVVSPVHHTIGLDGIARLAKSDIEYQESFEPQQPTDILSAVRIFILEHHHHHH”, for which the “soluble on expression in E. coli” value is given as “not soluble”.

Turning to “MTSMHTSVNGCKFCDIVKNKKELQLKENKSCVVINDIKPKAKNHYLVLSKQHIAKPTDLTVADVPLLEEMEKTGRELLREHLKKKGEADTVEDMLRIGFHLPPLLSVHHLHMHIIYPISDMGLISRKLTFRPGKVFKPARELIDQLKEDAGVPDPLEGNPAKDDVHEKIPAQVIS”, the “soluble on expression in E. coli” value was “not soluble”.

On to “MGSDKIHHHHHHMEMLEEHRCFEGWQQRWRHDSSTLNCPMTFSIFLPPPRDHTPPPVLYWLSGLTCNDENFTTKAGAQRVAAELGIVLVMPDTSPRGEKVANDDGYDLGQGAGFYLNATQPPWATHYRMYDYLRDELPALVQSQFNVSDRCAISGHSMGGHGALIMALKNPGKYTSVSAFAPIVNPCSVPWGIKAFSSYLGEDKNAWLEWDSCALMYASNAQDAIPTLIDQGDNDQFLADQLQPAVLAEAARQKAWPMTLRIQPGYDHSYYFIASFIEDHLRFHAQYLLK”, for which the “soluble on expression in E. coli” value was “not soluble”.

“MKVAAKKLATSRMRKDRAAAASPSSDIENSENPSSLASHSSSSGRMTPSKNTRSRKGVSVKDVSNHKITEFFQVRRSNRKTSKQISDEAKHALRDTVLKGTNERLLEVYKDVVKGRGIRTKVNFEKGDFVVEYRGVMMEYSEAKVIEEQYSNDEEIGSYMYFFEHNNKKWCIDATKESPWKGRLINHSVLRPNLKTKVVEIDGSHHLILVARRQIAQGEELLYDYGDRSAETIAKNPWLVNT”: the “soluble on expression in E. coli” value is “not soluble”.

As for “MKLLTSPFQGLKWLAPLLADDGSLHIPPQDLIQHKGISSWEVKVIVTRIDFLADQVTGTAIHQLTIDPARPFSGTEVPINITGEGTLLVTMQITAMSEDRPYCNRQYLAADIIAVVPPGVQNKVHNITHPAAPTIQHLSVGGGYTPIRQLVVQRE”, the “soluble on expression in E. coli” value is listed as “not soluble”.

Turning to “MPSRAEDYEVLYTIGTGSYGRCQKIRRKSDGKILVWKELDYGSMTEAEKQMLVSEVNLLRELKHPNIVRYYDRIIDRTNTTLYIVMEYCEGGDLASVITKGTKERQYLDEEFVLRVMTQLTLALKECHRRSDGGHTVLHRDLKPANVFLDGKQNVKLGDFGLARILNHDTSFAKTFVGTPYYMSPEQMNRMSYNEKSDIWSLGCLLYELCALMPPFTAFSQKELAGKIREGKFRRIPYRYSDELNEIITRMLNLKDYHRPSVEEILENPLIADLVADEQRRNLERRGRQLGEPEKSQDSSPVLSELKLKEIQLQERERALKAREKRLEQKEQELCVRERLAEDKLARAENLLKSYSLLKERKFLSLASNPELLNLPSSVIKKKVHFSGESKENIMRSENSESQLTSKSKCKDLKKRLHAAQLRAQALSDIEKNYQLKSRQILGMR”, the “soluble on expression in E. coli” value is “soluble”.

For the sequence “MAHHHHHHMSTAKSFPMAQLSTRAQYSRMQREFVQLQRQENPRNINFTTSLKNRHKNRYLDILANEETIYPPVLKAVGAQPGRYPYINGNLIDLDLPHTFVACQAPVPQGVPDFLETLSEKKVDLVVMLTKLREGGVLKAERYWPEEEEDSLSFPESGHDAIKVTRDAEASYEVDAELDIVRRPLVIHVPGKPMHRVLQVQYVGWPDHGVPESAASFDELLSVIKNCVTTSPILVHCSAGIGRTGTLIGAYAALLHIERGILTDSTVYSIVAAMKQKRFGMVQRLEQYAVIYMTVLGRLGVDISGLVSTLNLKA”, the “soluble on expression in E. coli” value is listed as “soluble”.

For “MLMLRSPFSDSNVLDHFLDEITGSVQFPYWRNADHNSFNFSDNIGEIVNDESKFSVQLDVSHFKPEDLKIELDGRELKIEGIQEKKSEHGYSKRSFSKMILLPEDVDLTSVKSAISNEGKLQIEAPKKTNSSRSIPINFVAKH”, the “soluble on expression in E. coli” value is listed as “not soluble”.

In the case of “MDGTIKEALSVVSDDQSLFDSAYGAAAHLPKADMTASGSPDYGQPHKINPLPPQQEWINQPVRVNVKREYDHMNGSRESPVDCSVSKCSKLVGGGESNPMNYNSYMDEKNGPPPPNMTTNERRVIVPADPTLWTQEHVRQWLEWAIKEYSLMEIDTSFFQNMDGKELCKMNKEDFLRATTLYNTEVLLSHLSYLRESSLLAYNTTSHTDQSSRLSVKEDPSYDSVRRGAWGNNMNSGLNKSPPLGGAQTISKNTEQRPQPDPYQILGPTSSRLANPGSGQIQLWQFLLELLSDSANASCITWEGTNGEFKMTDPDEVARRWGERKSKPNMNYDKLSRALRYYYDKNIMTKVHGKRYAYKFDFHGIAQALQPHPTESSMYKYPSDISYMPSYHAHQQKVNFVPPHPSSMPVTSSSFFGAASQYWTSPTGGIYPNPNVPRHPNTHVPSHLGSYY”, the “soluble on expression in E. coli” value is listed as “soluble”.

For “MGSDKIHHHHHHMDNLMLNNKIYLEGTCVSNLEFSHEMYGEGFYTFKISVNRLSDVKDILPVTISERLLTEIDIKEGAELIIEGQLRSYNKFIEGSNRLILTVFARDVQPCIEKSKNPNQIFLDGYICKEPIYRTTPFGREIADILLAVNRPYNKSDYIPTISWGRNSRFCKTLNVGDNIRVWGRLQSRKYQKKVGEDEVVTKTAYEVSISKLEYADEIDEEIDKSVENLAE”, the “soluble on expression in E. coli” value was “not soluble”.

For the sequence “MSLTISNEDNMILMSRYPDKYFDLAIVDPPYGILNKTKRGGDYKFNMNEYSQWDIKPDQTYFNELFRVSKNQIIWGGNYFGELWLRSEYNKGFIIWDKNQPETLNNFSMAEMAWSSFDRPSKIFRFSVRKNRNKTHPTQKPVELYQWLLKMYAKQGDKILDTHLGSGTLAIACCIAQFDLTACEINSDYYQQSIEKIKNNLPEARISFGHPGYCIIEEGGSHHHHHH”, the “soluble on expression in E. coli” value was “soluble”.

In the case of “MSKLQQILTYLESEKLDVAVVSDPVTINYLTGFYSDPHERQMFLFVLADQEPLLFVPALEVERASSTVSFPVVGYVDSENPWQKIKHALPQLDFKRVAVEFDNLILTKYHGLKTVFETAEFDNLTPRIQRMRLIK”, the “soluble on expression in E. coli” value was “soluble”.

Source of the values: the DeepSol protein solubility set.
